Tested on: HeLa Kyoto
Assay: melting temperature (median over replicates), in situ; higher = more thermally stable
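Also: HeLa Kyoto cells synchronized by double thymidine or nocodazole block, proteins quantified by TMT10plex mass spectrometry, three independent biological replicates.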

## MAEVPPGPSSLLPPPAPPAPAAVEPRCPFPAGAALACCSEDEEDDEEHEGGGSRSPAGGESATVAAKGHPCLRCPQPPQEQQQLNGLISPELRHLRAAASLKSKVLSVAEVAATTATPDGGPRATATKGAGVHSGERPPHSLSSNARTAVPSPVEAAAASDPAAARNGLAEGTEQEEEEEDEQVRLLSSSLTADCSLRSPSGREVEPGEDRTIRYVRYESELQMPDIMRLITKDLSEPYSIYTYRYFIHNWPQLCFLAMVGEECVGAIVCKLDMHKKMFRRGYIAMLAVDSKYRRNGIGTNLVKKAIYAMVEGDCDEVVLETEITNKSALKLYENLGFVRDKRLFRYYLNGVDALRLKLWLR [NAA30]
Cell cycle stage: G1/S
  melting temperature: 51.9 °C

## MDEESLESALQTYRAQLQQVELALGAGLDSSEQADLRQLQGDLKELIELTEASLVSVRKSSLLAALDEERPGRQEDAEYQAFREAITEAVEAPAAARGSGSETVPKAEAGPESAAGGQEEEEGEDEEELSGTKVSAPYYSSWGTLEYHNAMVVGTEEAEDGSAGVRVLYLYPTHKSLKPCPFFLEGKCRFKENCRFSHGQVVSLDELRPFQDPDLSSLQAGSACLAKHQDGLWHAARITDVDNGYYTVKFDSLLLREAVVEGDGILPPLRTEATESDSDSDGTGDSSYARVVGSDAVDSAQSSALCPSLAVVGSDAVDSGTCSSAFAGWEVHTRGIGSRLLTKMGYEFGKGLGRHAEGRVEPIHAVVLPRGKSLDQCVETLQKQTRVGKAGTNKPPRCRGRGARPGGRPAPRNVFDFLNEKLQGQAPGALEAGAAPAGRRSKDMYHASKSAKRALSLRLFQTEEKIERTQRDIRSIQEALARNAGRHSVASAQLQEKLAGAQRQLGQLRAQEAGLQQEQRKADTHKKMTEF [ZGPAT]
Cell cycle stage: G1/S
  melting temperature: 47.5 °C
Cell cycle stage: mitosis
  melting temperature: 49.3 °C

## MGLLDRLSVLLGLKKKEVHVLCLGLDNSGKTTIINKLKPSNAQSQNILPTIGFSIEKFKSSSLSFTVFDMSGQGRYRNLWEHYYKEGQAIIFVIDSSDRLRMVVAKEELDTLLNHPDIKHRRIPILFFANKMDLRDAVTSVKVSQLLCLENIKDKPWHICASDAIKGEGLQEGVDWLQDQIQTVKT [ARL6]
Cell cycle stage: mitosis
  melting temperature: 50.3 °C

## PLXNA2
Cell cycle stage: G1/S
  melting temperature: 54.1 °C
Cell cycle stage: mitosis
  melting temperature: 54.4 °C

## MTQSVVVQVGQCGNQIGCCFWDLALREHAAVNQKGIYDEAISSFFRNVDTRVVGDGGSISKGKICSLKARAVLIDMEEGVVNEILQGPLRDVFDTKQLITDISGSGNNWAVGHKVFGSLYQDQILEKFRKSAEHCDCLQCFFIIHSMGGGTGSGLGTFLLKVLEDEFPEVYRFVTSIYPSGEDDVITSPYNSILAMKELNEHADCVLPIDNQSLFDIISKIDLMVNSGKLGTTVKPKSLVTSSSGALKKQHKKPFDAMNNIVANLLLNLTSSARFEGSLNMDLNEISMNLVPFPQLHYLVSSLTPLYTLTDVNIPPRRLDQMFSDAFSKDHQLLRADPKHSLYLACALMVRGNVQISDLRRNIERLKPSLQFVSWNQEGWKTSLCSVPPVGHSHSLLALANNTCVKPTFMELKERFMRLYKKKAHLHHYLQVEGMEESCFTEAVSSLSALIQEYDQLDATKNMPVQDLPRLSIAM [TUBE1]
Cell cycle stage: mitosis
  melting temperature: 55.1 °C

## MQSREDAPRSRRLASPRGGKRPKKIHKPTVSAFFTGPEELKDTAHSAALLAQLKSFYDARLLCDVTIEVVTPGSGPGTGRLFPCNRNVLAAACPYFKSMFTGGMYESQQASVTMHDVDAESFEVLVDYCYTGRVSLSEANVERLYAASDMLQLEYVREACASFLARRLDLTNCTAILKFADAFGHRKLRSQAQSYIAQNFKQLSHMGSIREETLADLTLAQLLAVLRLDSLDVESEQTVCHVAVQWLEAAPKERGPSAAEVFKCVRWMHFTEEDQDYLEGLLTKPIVKKYCLDVIEGALQMRYGDLLYKSLVPVPNSSSSSSSSNSLVSAAENPPQRLGMCAKEMVIFFGHPRDPFLCCDPYSGDLYKVPSPLTCLAHTRTVTTLAVCISPDHDIYLAAQPRTDLWVYKPAQNSWQQLADRLLCREGMDVAYLNGYIYILGGRDPITGVKLKEVECYNVKRNQWALVAPLPHSFLSFDLMVIRDYLYALNSKRMFCYDPSHNMWLKCVSLKRNDFQEACVFNEEIYCICDIPVMKVYNPVRAEWRQMNNIPLVSETNNYRIIKHGQKLLLITSRTPQWKKNRVTVYEYDIRGDQWINIGTTLGLLQFDSNFFCLSARVYPSCLEPGQSFLTEEEEIPSESSTEWDLGGFSEPDSESGSSSSLSDDDFWVRVAPQ [KBTBD6]
Cell cycle stage: G1/S
  melting temperature: 50.6 °C
Cell cycle stage: mitosis
  melting temperature: 51.1 °C

## MLAGAGRPGLPQGRHLCWLLCAFTLKLCQAEAPVQEEKLSASTSNLPCWLVEEFVVAEECSPCSNFRAKTTPECGPTGYVEKITCSSSKRNEFKSCRSALMEQRLFWKFEGAVVCVALIFACLVIIRQRQLDRKALEKVRKQIESI [JTB]
Cell cycle stage: mitosis
  melting temperature: 53.4 °C

## MNHLPEDMENALTGSQSSHASLRNIHSINPTQLMARIESYEGREKKGISDVRRTFCLFVTFDLLFVTLLWIIELNVNGGIENTLEKEVMQYDYYSSYFDIFLLAVFRFKVLILAYAVCRLRHWWAIALTTAVTSAFLLAKVILSKLFSQGAFGYVLPIISFILAWIETWFLDFKVLPQEAEEENRLLIVQDASERAALIPGGLSDGQFYSPPESEAGSEEAEEKQDSEKPLLEL [STARD3NL]
Cell cycle stage: G1/S
  melting temperature: 55.4 °C

## MEMSGLSFSEMEGCRNLLGLLDNDEIMALCDTVTNRLVQPQDRQDAVHAILAYSQSAEELLRRRKVHREVIFKYLATQGIVIPPATEKHNLIQHAKDYWQKQPQLKLKETPEPVTKTEDIHLFQQQVKEDKKAEKVDFRRLGEEFCHWFFGLLNSQNPFLGPPQDEWGPQHFWHDVKLRFYYNTSEQNVMDYHGAEIVSLRLLSLVKEEFLFLSPNLDSHGLKCASSPHGLVMVGVAGTVHRGNTCLGIFEQIFGLIRCPFVENTWKIKFINLKIMGESSLAPGTLPKPSVKFEQSDLEAFYNVITVCGTNEVRHNVKQASDSGTGDQV [C3ORF38]
Cell cycle stage: G1/S
  melting temperature: 50.4 °C
Cell cycle stage: mitosis
  melting temperature: 50.9 °C

## MATETVELHKLKLAELKQECLARGLETKGIKQDLIHRLQAYLEEHAEEEANEEDVLGDETEEEETKPIELPVKEEEPPEKTVDVAAEKKVVKITSEIPQTERMQKRAERFNVPVSLESKKAARAARFGISSVPTKGLSSDNKPMVNLDKLKERAQRFGLNVSSISRKSEDDEKLKKRKERFGIVTSSAGTGTTEDTEAKKRKRAERFGIA [SARNP]
Cell cycle stage: G1/S
  melting temperature: 57.9 °C
Cell cycle stage: mitosis
  melting temperature: 54.3 °C

## MSKAHPPELKKFTDKKFSLKLNGGRHVQGILRGFDPFMNLVIDECVEMATSGQQKNIGMVEIRGNSIIMLEALERV [SNRPGP15]
Cell cycle stage: G1/S
  melting temperature: 53.6 °C
Cell cycle stage: mitosis
  melting temperature: 54 °C

## MAPQRRAATKAPEGNGAAERRNRSSTKKDRAPREVQRLWQRPWLRTAGLGAGFVLTALLLWSSLGADDGVAEVLARRGEVVAGRFIEVPCSEDYDSHRRFEGCTPRKCGRGVTDVVITREEAERIRSVAEKGLSLGGSDGGASILDLHSGALSVGKHFVNLYRYFGDKIQNIFSEEDFRLYREVRQKVQLTIAEAFGISASSLHLTKPTFFSRINSTEARTAHDEYWHAHVDKVTYGSFDYTSLLYLSNYLEDFGGGRFMFMEEGANKTVEPRAGRVSFFTSGSENLHRVEKVHWGTRYAITIAFSCNPDHGIEDPAFP [OGFOD3]
Cell cycle stage: mitosis
  melting temperature: 53.1 °C

## MAGSDTAPFLSQADDPDDGPVPGTPGLPGSTGNPKSEEPEVPDQEGLQRITGLSPGRSALIVAVLCYINLLNYMDRFTVAGVLPDIEQFFNIGDSSSGLIQTVFISSYMVLAPVFGYLGDRYNRKYLMCGGIAFWSLVTLGSSFIPGEHFWLLLLTRGLVGVGEASYSTIAPTLIADLFVADQRSRMLSIFYFAIPVGSGLGYIAGSKVKDMAGDWHWALRVTPGLGVVAVLLLFLVVREPPRGAVERHSDLPPLNPTSWWADLRALARNPSFVLSSLGFTAVAFVTGSLALWAPAFLLRSRVVLGETPPCLPGDSCSSSDSLIFGLITCLTGVLGVGLGVEISRRLRHSNPRADPLVCATGLLGSAPFLFLSLACARGSIVATYIFIFIGETLLSMNWAIVADILLYVVIPTRRSTAEAFQIVLSHLLGDAGSPYLIGLISDRLRRNWPPSFLSEFRALQFSLMLCAFVGALGGAAFLGTAIFIEADRRRAQLHVQGLLHEAGSTDDRIVVPQRGRSTRVPVASVLI [SPNS1]
Cell cycle stage: mitosis
  melting temperature: 62 °C

## MASRAGPRAAGTDGSDFQHRERVAMHYQMSVTLKYEIKKLIYVHLVIWLLLVAKMSVGHLRLLSHDQVAMPYQWEYPYLLSILPSLLGLLSFPRNNISYLVLSMISMGLFSIAPLIYGSMEMFPAAQQLYRHGKAYRFLFGFSAVSIMYLVLVLAVQVHAWQLYYSKKLLDSWFTSTQEKKHK [JAGN1]
Cell cycle stage: mitosis
  melting temperature: 54.8 °C

## MGAKQSGPAAANGRTRAYSGSDLPSSSSGGANGTAGGGGGARAAAAGRFPAQVPSAHQPSASGGAAAAAAAPAAPAAPRSRSLGGAVGSVASGARAAQSPFSIPNSSSGPYGSQDSVHSSPEDGGGGRDRPVGGSPGGPRLVIGSLPAHLSPHMFGGFKCPVCSKFVSSDEMDLHLVMCLTKPRITYNEDVLSKDAGECAICLEELQQGDTIARLPCLCIYHKGCIDEWFEVNRSCPEHPSD [ZNRF2]
Cell cycle stage: G1/S
  melting temperature: 52.7 °C
Cell cycle stage: mitosis
  melting temperature: 55.1 °C

## MLVTAYLAFVGLLASCLGLELSRCRAKPPGRACSNPSFLRFQLDFYQVYFLALAADWLQAPYLYKLYQHYYFLEGQIAILYVCGLASTVLFGLVASSLVDWLGRKNSCVLFSLTYSLCCLTKLSQDYFVLLVGRALGGLSTALLFSAFEAWYIHEHVERHDFPAEWIPATFARAAFWNHVLAVVAGVAAEAVASWIGLGPVAPFVAAIPLLALAGALALRNWGENYDRQRAFSRTCAGGLRCLLSDRRVLLLGTIQALFESVIFIFVFLWTPVLDPHGAPLGIIFSSFMAASLLGSSLYRIATSKRYHLQPMHLLSLAVLIVVFSLFMLTFSTSPGQESPVESFIAFLLIELACGLYFPSMSFLRRKVIPETEQAGVLNWFRVPLHSLACLGLLVLHDSDRKTGTRNMFSICSAVMVMALLAVVGLFTVVRHDAELRVPSPTEEPYAPEL [MFSD5]
Cell cycle stage: mitosis
  melting temperature: 54.9 °C

## MSSSSSSPRETYEEDREYESQAKRLKTEEGEIDYSAEEGENRREATPRGGGDGGGGGRSFSQPEAGGSHHKVSVSPVVHVRGLCESVVEADLVEALEKFGTICYVMMMPFKRQALVEFENIDSAKECVTFAADEPVYIAGQQAFFNYSTSKRITRPGNTDDPSGGNKVLLLSIQNPLYPITVDVLYTVCNPVGKVQRIVIFKRNGIQAMVEFESVLCAQKAKAALNGADIYAGCCTLKIEYARPTRLNVIRNDNDSWDYTKPYLGRRDRGKGRQRQAILGEHPSSFRHDGYGSHGPLLPLPSRYRMGSRDTPELVAYPLPQASSSYMHGGNPSGSVVMVSGLHQLKMNCSRVFNLFCLYGNIEKVKFMKTIPGTALVEMGDEYAVERAVTHLNNVKLFGKRLNVCVSKQHSVVPSQIFELEDGTSSYKDFAMSKNNRFTSAGQASKNIIQPPSCVLHYYNVPLCVTEETFTKLCNDHEVLTFIKYKVFDAKPSAKTLSGLLEWECKTDAVEALTALNHYQIRVPNGSNPYTLKLCFSTSSHL [HNRNPLL]
Cell cycle stage: G1/S
  melting temperature: 47.6 °C
Cell cycle stage: mitosis
  melting temperature: 49.7 °C

## MAHAHIQGGRRAKSRFVVCIMSGARSKLALFLCGCYVVALGAHTGEESVADHHEAEYYVAAVYEHPSILSLNPLALISRQEALELMNQNLDIYEQQVMTAAQKDVQIIVFPEDGIHGFNFTRTSIYPFLDFMPSPQVVRWNPCLEPHRFNDTEVLQRLSCMAIRGDMFLVANLGTKEPCHSSDPRCPKDGRYQFNTNVVFSNNGTLVDRYRKHNLYFEAAFDVPLKVDLITFDTPFAGRFGIFTCFDILFFDPAIRVLRDYKVKHVVYPTAWMNQLPLLAAIEIQKAFAVAFGINVLAANVHHPVLGMTGSGIHTPLESFWYHDMENPKSHLIIAQVAKNPVGLIGAENATGETDPSHSKFLKILSGDPYCEKDAQEVHCDEATKWNVNAPPTFHSEMMYDNFTLVPVWGKEGYLHVCSNGLCCYLLYERPTLSKELYALGVFDGLHTVHGTYYIQVCALVRCGGLGFDTCGQEITEATGIFEFHLWGNFSTSYIFPLFLTSGMTLEVPDQLGWENDHYFLRKSRLSSGLVTAALYGRLYERD [BTD]
Cell cycle stage: mitosis
  melting temperature: 58 °C

Reference: the supplement of paper PMC5998384
